Measured values from publication PMC3162602, “Laforin, a Dual Specificity Phosphatase Involved in Lafora Disease, Is Present Mainly as Monomeric Form with Full Phosphatase Activity” (PLoS ONE, 2011).

What was measured:
[1] = molecular target: Hs-laforin-HIS6 (human) (UniProt O95278); experiment: SEC; Ni-NTA-purified Hs-laforin-HIS6 on HiLoad 16/60 Superdex 75; two peaks, A (dimer) and B (monomer)
[2] = molecular target: Cm-laforin-HIS6 (Cyanidioschyzon merolae); experiment: SEC; SEX4-HIS6 on Superdex-75 and Cm-laforin-HIS6 on Superdex-200 after Ni-NTA; multiple peaks
[3] = molecular target: the molecule itself; experiment: as above

## Hs-laforin-HIS6 (from UniProt O95278 1-331) (enzyme)
[1]
  stoichiometry N: 2

## Cm-laforin-HIS6 (enzyme)
[2]
  stoichiometry N: 2

B1: At-SEX4-HIS6(Δ81) (enzyme, Arabidopsis thaliana, UniProt Q9FEB5 82-379, looked up)
chain: QAMGAVLTYRHELGMNYNFIRPDLIVGSCLQTPEDVDKLRKIGVKTIFCLQQDPDLEYFGVDISSIQAYAKKYSDIQHIRCEIRDFDAFDLRMRLPAVVGTLYKAVKRNGGVTYVHCTAGMGRAPAVALTYMFWVQGYKLMEAHKLLMSKRSCFPKLDAIRNATIDILTGLKRKTVTLTLKDKGFSRVEISGLDIGWGQRIPLTLDKGTGFWILKRELPEGQFEYKYIIDGEWTHNEAEPFIGPNKDGHTNNYAKVVDDPTSVDGTTRERLSSEDPELLEEERSKLIQFLETCSEAEV
notes: SEX4 (Starch EXcess4), Arabidopsis thaliana glucan phosphatase; construct pET21a At-SEX4-HIS6(Δ81), printed as a 32 kDa protein; Δ81 read as lacking the first 81 residues; also called Starch EXcess4; source: bacteria (E. coli), purified (Ni-NTA, Superdex-75)
[3]
  stoichiometry N: 2
